Assay results from the supplement of paper PMC6379048.

What was measured:
Assay in all cases: Kd (EC50 corrected by depletion factor)
[1] = molecular target: ZC3HAV1 (UniProt Q7Z2W4)
Method: (§1)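 Competition-binding assay: HEK293-FT cell lysate (2.5 mg protein) pre-incubated 1 h at 4°C with free motif-containing RNA oligos (0 to 30 µM, 12 doses), then pulled down with the same 5'-amino-C6 RNA oligos immobilised on NHS-Sepharose beads (30 min, 4°C). Bound proteins were quantified by label-free LC-MS/MS and normalised to the water control. EC50 came from a four-parameter log-logistic fit; Kd = EC50 x depletion factor. Random/reversed control probes are dropped.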

[2] = molecular target: T1, DHX36 (UniProt Q9H2U1)
T1 sequence: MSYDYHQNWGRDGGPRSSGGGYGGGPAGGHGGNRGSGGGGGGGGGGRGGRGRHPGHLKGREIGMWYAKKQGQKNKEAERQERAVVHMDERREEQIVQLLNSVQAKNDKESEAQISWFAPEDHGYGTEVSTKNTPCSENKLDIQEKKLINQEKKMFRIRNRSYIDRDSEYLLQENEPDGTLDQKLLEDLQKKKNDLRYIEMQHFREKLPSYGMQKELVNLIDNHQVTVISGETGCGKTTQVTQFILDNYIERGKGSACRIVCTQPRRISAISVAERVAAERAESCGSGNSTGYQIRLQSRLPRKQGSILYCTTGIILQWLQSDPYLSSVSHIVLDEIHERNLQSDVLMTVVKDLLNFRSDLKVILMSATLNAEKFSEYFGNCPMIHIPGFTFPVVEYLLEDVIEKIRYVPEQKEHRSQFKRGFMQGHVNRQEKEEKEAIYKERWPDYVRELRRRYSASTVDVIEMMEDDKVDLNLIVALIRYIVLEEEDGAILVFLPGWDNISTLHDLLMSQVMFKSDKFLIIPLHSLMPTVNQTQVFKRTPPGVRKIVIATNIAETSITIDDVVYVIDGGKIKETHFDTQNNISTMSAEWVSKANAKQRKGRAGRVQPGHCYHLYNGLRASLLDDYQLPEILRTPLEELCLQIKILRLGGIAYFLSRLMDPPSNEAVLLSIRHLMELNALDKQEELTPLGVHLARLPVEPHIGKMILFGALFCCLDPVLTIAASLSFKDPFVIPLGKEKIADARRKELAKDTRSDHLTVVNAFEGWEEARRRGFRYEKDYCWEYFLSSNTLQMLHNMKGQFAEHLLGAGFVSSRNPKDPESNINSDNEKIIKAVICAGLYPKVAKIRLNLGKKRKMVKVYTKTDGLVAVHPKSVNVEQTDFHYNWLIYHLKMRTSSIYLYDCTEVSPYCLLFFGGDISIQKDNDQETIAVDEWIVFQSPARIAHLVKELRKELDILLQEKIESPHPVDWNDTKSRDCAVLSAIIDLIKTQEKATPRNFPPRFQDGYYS
Method: as §1

[3] = molecular target: DHX9 (UniProt Q08211)
Method: as §1

[4] = molecular target: T2, LIN28B (UniProt Q6ZN17)
T2 sequence: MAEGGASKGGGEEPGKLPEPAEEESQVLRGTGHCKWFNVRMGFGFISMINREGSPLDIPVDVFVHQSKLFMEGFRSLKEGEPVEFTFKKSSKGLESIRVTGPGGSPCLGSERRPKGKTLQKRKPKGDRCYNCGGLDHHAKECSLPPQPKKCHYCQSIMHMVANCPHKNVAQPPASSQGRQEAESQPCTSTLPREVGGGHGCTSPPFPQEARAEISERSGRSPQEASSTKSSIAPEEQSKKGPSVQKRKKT
Method: as §1

[5] = molecular target: T3, RTCA (UniProt O00442)
T3 sequence: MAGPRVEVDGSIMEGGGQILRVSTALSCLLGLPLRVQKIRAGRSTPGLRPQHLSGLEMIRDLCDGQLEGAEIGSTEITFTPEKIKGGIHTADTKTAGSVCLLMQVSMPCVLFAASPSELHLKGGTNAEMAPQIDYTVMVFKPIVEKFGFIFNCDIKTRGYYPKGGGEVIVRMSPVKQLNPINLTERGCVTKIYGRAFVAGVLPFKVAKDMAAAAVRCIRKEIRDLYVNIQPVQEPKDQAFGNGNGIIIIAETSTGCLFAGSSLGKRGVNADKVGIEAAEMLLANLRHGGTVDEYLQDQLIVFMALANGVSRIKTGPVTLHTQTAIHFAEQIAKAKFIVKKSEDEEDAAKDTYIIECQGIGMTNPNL
Method: as §1

[6] = molecular target: DHX15 (UniProt O43143)
Method: as §1

[7] = molecular target: T4, HNRNPUL1 (UniProt Q9BUJ2)
T4 sequence: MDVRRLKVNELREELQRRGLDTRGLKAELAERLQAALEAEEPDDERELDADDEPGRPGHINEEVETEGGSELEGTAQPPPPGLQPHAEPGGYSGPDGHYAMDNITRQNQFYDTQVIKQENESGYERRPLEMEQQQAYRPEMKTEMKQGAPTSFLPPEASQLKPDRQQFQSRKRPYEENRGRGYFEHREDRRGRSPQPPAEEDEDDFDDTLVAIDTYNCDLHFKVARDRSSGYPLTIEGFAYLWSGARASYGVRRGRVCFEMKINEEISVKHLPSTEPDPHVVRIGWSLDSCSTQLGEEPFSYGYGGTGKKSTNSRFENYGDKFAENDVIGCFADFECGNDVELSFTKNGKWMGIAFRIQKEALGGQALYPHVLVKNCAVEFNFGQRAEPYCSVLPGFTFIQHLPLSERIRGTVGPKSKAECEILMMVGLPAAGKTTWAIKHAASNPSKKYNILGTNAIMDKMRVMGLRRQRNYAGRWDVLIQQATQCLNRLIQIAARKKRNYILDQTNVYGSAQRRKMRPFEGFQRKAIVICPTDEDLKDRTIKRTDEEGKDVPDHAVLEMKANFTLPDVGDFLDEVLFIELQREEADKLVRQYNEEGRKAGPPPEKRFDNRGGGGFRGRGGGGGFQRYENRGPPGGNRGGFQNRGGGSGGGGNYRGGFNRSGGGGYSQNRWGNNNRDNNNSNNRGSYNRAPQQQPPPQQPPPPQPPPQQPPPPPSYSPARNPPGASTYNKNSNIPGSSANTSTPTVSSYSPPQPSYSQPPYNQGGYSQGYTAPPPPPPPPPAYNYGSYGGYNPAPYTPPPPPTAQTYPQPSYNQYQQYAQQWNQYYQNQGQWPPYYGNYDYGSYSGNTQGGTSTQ
Method: as §1

Sequence of ZC3HAV1 (Q7Z2W4 whole entry): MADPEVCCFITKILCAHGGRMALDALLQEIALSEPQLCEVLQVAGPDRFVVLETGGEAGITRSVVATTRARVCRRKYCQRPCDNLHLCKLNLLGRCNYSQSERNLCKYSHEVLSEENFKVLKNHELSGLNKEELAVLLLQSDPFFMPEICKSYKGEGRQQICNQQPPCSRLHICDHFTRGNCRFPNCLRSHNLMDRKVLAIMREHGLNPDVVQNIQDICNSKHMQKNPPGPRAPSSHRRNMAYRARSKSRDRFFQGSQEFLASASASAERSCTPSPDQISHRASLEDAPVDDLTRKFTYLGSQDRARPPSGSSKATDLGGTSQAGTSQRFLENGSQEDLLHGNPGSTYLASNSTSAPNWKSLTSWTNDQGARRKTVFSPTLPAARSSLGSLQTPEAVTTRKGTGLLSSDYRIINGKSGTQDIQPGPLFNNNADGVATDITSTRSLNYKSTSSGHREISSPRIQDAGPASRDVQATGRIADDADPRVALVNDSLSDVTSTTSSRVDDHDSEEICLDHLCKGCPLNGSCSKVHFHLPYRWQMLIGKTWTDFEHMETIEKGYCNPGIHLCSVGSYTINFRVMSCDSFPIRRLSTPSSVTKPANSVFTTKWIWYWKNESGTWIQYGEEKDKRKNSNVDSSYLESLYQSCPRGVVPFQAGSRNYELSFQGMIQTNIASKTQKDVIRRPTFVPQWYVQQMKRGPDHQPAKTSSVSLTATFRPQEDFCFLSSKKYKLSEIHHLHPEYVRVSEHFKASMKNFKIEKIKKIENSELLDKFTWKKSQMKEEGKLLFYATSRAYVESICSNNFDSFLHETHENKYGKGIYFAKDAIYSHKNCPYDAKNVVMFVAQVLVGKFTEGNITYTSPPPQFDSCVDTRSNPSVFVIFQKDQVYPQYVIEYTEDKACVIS
Sequence of DHX15 (O43143 whole entry): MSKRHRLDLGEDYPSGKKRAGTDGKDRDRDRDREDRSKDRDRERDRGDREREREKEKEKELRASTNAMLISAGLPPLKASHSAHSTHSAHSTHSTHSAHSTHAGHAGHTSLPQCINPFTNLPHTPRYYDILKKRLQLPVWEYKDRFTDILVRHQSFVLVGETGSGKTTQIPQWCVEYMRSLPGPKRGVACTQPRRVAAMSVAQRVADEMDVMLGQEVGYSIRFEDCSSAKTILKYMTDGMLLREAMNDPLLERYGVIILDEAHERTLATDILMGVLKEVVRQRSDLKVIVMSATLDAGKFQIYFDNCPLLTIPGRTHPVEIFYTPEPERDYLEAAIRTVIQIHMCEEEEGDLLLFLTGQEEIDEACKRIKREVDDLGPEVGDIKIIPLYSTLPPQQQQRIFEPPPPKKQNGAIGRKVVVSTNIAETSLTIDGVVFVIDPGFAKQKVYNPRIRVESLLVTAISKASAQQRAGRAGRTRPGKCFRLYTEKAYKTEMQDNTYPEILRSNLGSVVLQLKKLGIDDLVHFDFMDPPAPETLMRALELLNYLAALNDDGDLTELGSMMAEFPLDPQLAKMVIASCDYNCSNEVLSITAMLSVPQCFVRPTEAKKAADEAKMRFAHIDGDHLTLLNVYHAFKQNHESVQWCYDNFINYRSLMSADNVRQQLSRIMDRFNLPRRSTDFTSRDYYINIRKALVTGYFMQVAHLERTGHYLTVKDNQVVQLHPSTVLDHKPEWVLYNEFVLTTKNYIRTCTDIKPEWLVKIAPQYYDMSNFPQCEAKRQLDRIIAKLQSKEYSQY
Sequence of DHX9 (Q08211 whole entry): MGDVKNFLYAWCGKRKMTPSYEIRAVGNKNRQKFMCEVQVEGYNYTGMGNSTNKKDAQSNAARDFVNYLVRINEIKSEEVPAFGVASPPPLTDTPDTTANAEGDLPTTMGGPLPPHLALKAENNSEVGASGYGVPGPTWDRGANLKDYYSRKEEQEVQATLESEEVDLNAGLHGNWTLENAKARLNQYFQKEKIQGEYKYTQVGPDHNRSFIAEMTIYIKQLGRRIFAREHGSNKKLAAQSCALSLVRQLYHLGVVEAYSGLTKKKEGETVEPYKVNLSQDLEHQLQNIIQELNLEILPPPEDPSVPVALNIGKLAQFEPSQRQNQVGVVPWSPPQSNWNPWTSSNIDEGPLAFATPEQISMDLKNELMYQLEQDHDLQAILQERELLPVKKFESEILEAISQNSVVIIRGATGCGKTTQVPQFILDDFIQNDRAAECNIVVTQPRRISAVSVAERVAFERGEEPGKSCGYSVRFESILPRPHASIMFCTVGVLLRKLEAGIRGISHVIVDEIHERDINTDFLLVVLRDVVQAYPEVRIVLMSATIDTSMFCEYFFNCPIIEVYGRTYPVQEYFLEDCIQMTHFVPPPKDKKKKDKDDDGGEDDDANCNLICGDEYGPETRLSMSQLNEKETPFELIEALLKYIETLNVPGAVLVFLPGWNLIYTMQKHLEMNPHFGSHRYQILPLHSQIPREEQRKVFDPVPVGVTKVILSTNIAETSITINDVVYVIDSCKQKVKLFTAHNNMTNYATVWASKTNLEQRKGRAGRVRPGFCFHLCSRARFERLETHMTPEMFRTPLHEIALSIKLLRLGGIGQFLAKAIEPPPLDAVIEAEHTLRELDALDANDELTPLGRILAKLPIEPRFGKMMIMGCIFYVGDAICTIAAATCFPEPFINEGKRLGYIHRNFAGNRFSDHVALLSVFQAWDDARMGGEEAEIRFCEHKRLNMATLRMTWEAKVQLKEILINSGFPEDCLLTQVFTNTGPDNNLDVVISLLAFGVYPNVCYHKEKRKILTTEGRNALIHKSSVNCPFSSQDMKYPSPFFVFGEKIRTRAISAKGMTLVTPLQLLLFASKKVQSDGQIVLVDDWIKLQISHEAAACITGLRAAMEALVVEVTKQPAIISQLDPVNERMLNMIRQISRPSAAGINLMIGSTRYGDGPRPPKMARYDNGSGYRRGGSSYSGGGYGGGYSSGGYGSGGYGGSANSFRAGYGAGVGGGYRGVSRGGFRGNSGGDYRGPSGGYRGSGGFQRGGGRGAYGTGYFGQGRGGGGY

Sequence | Kd [1] [nM] | Kd [2] [nM] | Kd [3] [nM] | Kd [4] [nM] | Kd [5] [nM] | Kd [6] [nM] | Kd [7] [nM]
AAUAAA | 776 | 573 | 1840 | 610 | 81.1 | 446 | 308
CUGUCCU | 867 | 1850 | 155 | 1220 | 990 | 358 | 35.7
UAUUUAU | 4310 | 632 | 1230 | 1100 | 273 | 157 | 427
